The values that follow are results of earlier work, collected in article doi:10.1101/2021.10.04.463074.

This data set deals with Asp85 (UniProt position 98, WARYADWLFTT). As to conditions: resting (ground) state of bR, protonated Schiff base, all-trans retinal.

“Bacteriorhodopsin (bR) (Halobacterium salinarum (named Halobacterium halobium only in titles of cited references))”: the pKa is listed as 2 to 3.

For orientation: pKa means the pH at which an ionisable group is half protonated.
